IntAct's records for PubMed 15208391

B1: Cullin-1 (Arabidopsis thaliana (Mouse-ear cress)), Q94AH6 (parent)
chain: MERKTIDLEQGWDYMQTGITKLKRILEGLNEPAFDSEQYMMLYTTIYNMCTQKPPHDYSQQLYDKYREAFEEYINSTVLPALREKHDEFMLRELFKRWSNHKVMVRWLSRFFYYLDRYFIARRSLPPLNEVGLTCFRDLVYNELHSKVKQAVIALVDKEREGEQIDRALLKNVLDIYVEIGMGQMERYEEDFESFMLQDTSSYYSRKASSWIQEDSCPDYMLKSEECLKKERERVAHYLHSSSEPKLVEKVQHELLVVFASQLLEKEHSGCRALLRDDKVDDLSRMYRLYHKILRGLEPVANIFKQHVTAEGNALVQQAEDTATNQVANTASVQEQVLIRKVIELHDKYMVYVTECFQNHTLFHKALKEAFEIFCNKTVAGSSSAELLATFCDNILKKGGSEKLSDEAIEDTLEKVVKLLAYISDKDLFAEFYRKKLARRLLFDRSANDDHERSILTKLKQQCGGQFTSKMEGMVTDLTLARENQNSFEDYLGSNPAANPGIDLTVTVLTTGFWPSYKSFDINLPSEMIKCVEVFKGFYETKTKHRKLTWIYSLGTCHINGKFDQKAIELIVSTYQAAVLLLFNTTDKLSYTEILAQLNLSHEDLVRLLHSLSCAKYKILLKEPNTKTVSQNDAFEFNSKFTDRMRRIKIPLPPVDERKKVVEDVDKDRRYAIDAAIVRIMKSRKVLGHQQLVSECVEQLSRMFKPDIKAIKKRMEDLITRDYLERDKENPNMFRYLA
partner: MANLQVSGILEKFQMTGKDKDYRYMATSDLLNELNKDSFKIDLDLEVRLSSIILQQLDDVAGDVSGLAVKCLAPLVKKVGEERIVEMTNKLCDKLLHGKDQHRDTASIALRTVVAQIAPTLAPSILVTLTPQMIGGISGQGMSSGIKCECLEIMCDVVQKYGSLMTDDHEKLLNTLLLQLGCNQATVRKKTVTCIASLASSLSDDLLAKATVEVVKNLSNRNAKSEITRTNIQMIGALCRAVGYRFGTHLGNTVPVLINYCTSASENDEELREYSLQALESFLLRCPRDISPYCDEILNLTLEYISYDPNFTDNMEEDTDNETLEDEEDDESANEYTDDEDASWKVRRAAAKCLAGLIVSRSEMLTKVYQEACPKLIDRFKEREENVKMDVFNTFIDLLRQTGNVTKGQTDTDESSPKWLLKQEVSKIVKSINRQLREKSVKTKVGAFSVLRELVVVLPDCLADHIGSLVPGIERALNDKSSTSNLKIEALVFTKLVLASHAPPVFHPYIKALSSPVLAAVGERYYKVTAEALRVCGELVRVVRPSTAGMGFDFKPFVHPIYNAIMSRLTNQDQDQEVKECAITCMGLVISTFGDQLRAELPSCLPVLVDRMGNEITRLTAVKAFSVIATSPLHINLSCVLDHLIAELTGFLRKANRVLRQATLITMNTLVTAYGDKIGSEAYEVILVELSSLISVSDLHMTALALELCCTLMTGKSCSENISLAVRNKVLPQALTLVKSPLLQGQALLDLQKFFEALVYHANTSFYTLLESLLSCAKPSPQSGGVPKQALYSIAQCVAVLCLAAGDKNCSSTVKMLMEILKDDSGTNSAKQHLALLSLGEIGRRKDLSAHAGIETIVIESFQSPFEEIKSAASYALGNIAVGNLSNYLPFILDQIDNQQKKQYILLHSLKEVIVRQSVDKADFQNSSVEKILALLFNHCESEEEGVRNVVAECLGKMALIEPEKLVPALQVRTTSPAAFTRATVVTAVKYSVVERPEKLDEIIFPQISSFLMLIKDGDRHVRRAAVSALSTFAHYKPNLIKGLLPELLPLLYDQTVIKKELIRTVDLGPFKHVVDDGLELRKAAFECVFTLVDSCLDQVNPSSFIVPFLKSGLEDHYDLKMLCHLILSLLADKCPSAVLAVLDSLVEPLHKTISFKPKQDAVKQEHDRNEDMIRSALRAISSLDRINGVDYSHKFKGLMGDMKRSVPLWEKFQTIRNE

Variants of: B1
Conditions: with cand1_arath CAND1, Q8L5Y6

effect of a mutation on the interaction | Variant
increasing interaction strength | K682R
